Laboratory results as given in the supplement of paper PMC10126150.
± gives the standard deviation of the averaged measurements.
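Note: ATP exposure 15 min at 22 °C before imaging.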

What follows are sequences tested on ATP (assay: switch fluorescence ratio, 500 uM ATP over buffer (Cy3 cluster intensity, sum of 5 cycles each) (fold (ratio)); higher = stronger signal-on switching upon ATP binding; sequences stand for … in TCGTCGGCAGCGTCAGATGTGTATAAGAGACAGTTTTTTTTTTTTTTTTTTTTTTTTT…TC). Conditions: aptamer strand: ATP DNA aptamer (quencher-CACCTGGGGGAGTATTGCGGAGGAAGG + anchor), 100 nM annealed; ATP concentration: 500 uM.
How it was run: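 For every switch-domain sequence, the fluorescence ratio is the mean of per-cluster values, each being summed target-cycle Cy3 intensity over summed buffer-cycle Cy3 intensity. Clusters outside 100-1000 RFU were excluded. On a modified Illumina MiSeq flow-cell, the Cy3-labelled switching-strand clusters were annealed to 100 nM quencher-labelled ATP aptamer, imaged in selection buffer and then after 15 min with 500 uM ATP at 22 °C. Five such cycles were run, with NaOH stripping and re-annealing between them.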
ATGTAACTTA was tested, and the switch fluorescence ratio was 1.03 ± 0.027.
ATGTAAGGCG gave a switch fluorescence ratio of 1.014 ± 0.0076.
In the case of ATGTACGAAT, the switch fluorescence ratio is reported as 1.004 ± 0.0025.
With ATGTAGGCGT the switch fluorescence ratio was 0.967 ± 0.021.
ATGTAGGGGG gave a switch fluorescence ratio of 0.988 ± 0.013.
ATGTAGGGGT gave a switch fluorescence ratio of 1.04 ± 0.093.
ATGTAGGGTT showed a switch fluorescence ratio of 1.036 ± 0.0048.
ATGTAGTAGT was tested, and the switch fluorescence ratio was 1 ± 0.034.
For ATGTAGTCTT, the switch fluorescence ratio was 1 ± 0.0038.
Work on ATGTAGTGCA yielded a switch fluorescence ratio of 0.995 ± 0.034.
With ATGTATAGGC the switch fluorescence ratio was 0.962 ± 0.06.
For ATGTATATAG, the switch fluorescence ratio was 0.978 ± 0.012.
Work on ATGTATTAGG yielded a switch fluorescence ratio of 0.997 ± 0.025.
For ATGTATTTGG, the switch fluorescence ratio was 1.01 ± 0.014.
Work on ATGTCAAAGC yielded a switch fluorescence ratio of 0.984 ± 0.063.
Work on ATGTCAGAGA yielded a switch fluorescence ratio of 1.02 ± 0.037.
ATGTCATGCG showed a switch fluorescence ratio of 1.02 ± 0.045.
Sequence ATGTCCCAAG has a switch fluorescence ratio of 0.99 ± 0.042.
In the case of ATGTCCGAGG, the switch fluorescence ratio is reported as 1.028 ± 0.0019.
Work on ATGTCGACAG yielded a switch fluorescence ratio of 1 ± 0.043.
For ATGTCGTCTC, the switch fluorescence ratio was 1.003 ± 0.0091.
ATGTCGTGGG showed a switch fluorescence ratio of 1.01 ± 0.037.
For ATGTCTGGGC, the switch fluorescence ratio was 0.977 ± 0.014.
In the case of ATGTGAAAGG, the switch fluorescence ratio is reported as 1.02 ± 0.018.
Sequence ATGTGACGCA has a switch fluorescence ratio of 1.13 ± 0.012.
ATGTGACTCT was tested, and the switch fluorescence ratio was 1.01 ± 0.043.
In the case of ATGTGAGAAT, the switch fluorescence ratio is reported as 0.998 ± 0.037.
For ATGTGATCGC, the switch fluorescence ratio was 0.986 ± 0.042.
In the case of ATGTGCATGT, the switch fluorescence ratio is reported as 0.986 ± 0.024.
In the case of ATGTGGACAA, the switch fluorescence ratio is reported as 1.02 ± 0.021.
For ATGTGGAGAT, the switch fluorescence ratio was 0.977 ± 0.059.
With ATGTGGCCAC the switch fluorescence ratio was 1.06 ± 0.053.
For ATGTGGGGGA, the switch fluorescence ratio was 1.02 ± 0.015.
ATGTGGGGTA gave a switch fluorescence ratio of 0.985 ± 0.026.
ATGTGGTGCA gave a switch fluorescence ratio of 1.02 ± 0.0034.
With ATGTGGTTAG the switch fluorescence ratio was 0.994 ± 0.03.
Sequence ATGTGTAAAA has a switch fluorescence ratio of 0.99 ± 0.013.
ATGTGTCAAG was tested, and the switch fluorescence ratio was 0.9675 ± 0.0065.
With ATGTGTCTGT the switch fluorescence ratio was 1.01 ± 0.017.
Work on ATGTGTGAAA yielded a switch fluorescence ratio of 1 ± 0.073.
In the case of ATGTGTGGGA, the switch fluorescence ratio is reported as 1.029 ± 0.0019.
ATGTGTGGGC was tested, and the switch fluorescence ratio was 1.01 ± 0.021.
ATGTGTGTA gave a switch fluorescence ratio of 1 ± 0.021.
Work on ATGTGTTGCG yielded a switch fluorescence ratio of 1 ± 0.045.
Sequence ATGTGTTTTT has a switch fluorescence ratio of 0.98 ± 0.036.
With ATGTTAGTTG the switch fluorescence ratio was 0.965 ± 0.041.
Work on ATGTTATCGA yielded a switch fluorescence ratio of 1.008 ± 0.0074.
ATGTTCGGGC was tested, and the switch fluorescence ratio was 1.04 ± 0.035.
Sequence ATGTTCTATA has a switch fluorescence ratio of 0.97751 ± 0.00084.
Work on ATGTTCTGGG yielded a switch fluorescence ratio of 1.04 ± 0.029.
In the case of ATGTTGACCG, the switch fluorescence ratio is reported as 1.03 ± 0.044.
ATGTTGATAC showed a switch fluorescence ratio of 1.07 ± 0.0013.
Sequence ATGTTGATCC has a switch fluorescence ratio of 1.03 ± 0.03.
In the case of ATGTTGGAAT, the switch fluorescence ratio is reported as 1.04 ± 0.028.
In the case of ATGTTGGCGT, the switch fluorescence ratio is reported as 1 ± 0.011.
ATGTTGGTAG showed a switch fluorescence ratio of 0.985 ± 0.026.
Work on ATGTTGTCAG yielded a switch fluorescence ratio of 0.987 ± 0.027.
ATGTTGTCTC showed a switch fluorescence ratio of 1.001 ± 0.0079.
In the case of ATGTTTAAG, the switch fluorescence ratio is reported as 1.012 ± 0.0094.
ATGTTTCAGG was tested, and the switch fluorescence ratio was 0.997 ± 0.018.
Sequence ATGTTTCTGG has a switch fluorescence ratio of 0.965 ± 0.011.
In the case of ATGTTTGAGT, the switch fluorescence ratio is reported as 1.01 ± 0.026.
Work on ATGTTTGGAC yielded a switch fluorescence ratio of 1.01 ± 0.02.
With ATGTTTGGTA the switch fluorescence ratio was 1.003 ± 0.0015.
ATGTTTTAAC was tested, and the switch fluorescence ratio was 1.02 ± 0.039.
ATGTTTTATG was tested, and the switch fluorescence ratio was 0.992 ± 0.042.
With ATGTTTTTCT the switch fluorescence ratio was 0.963 ± 0.0029.
With ATTAAAAAAG the switch fluorescence ratio was 0.985 ± 0.028.
In the case of ATTAAAAAAT, the switch fluorescence ratio is reported as 0.98 ± 0.089.
ATTAAAACGG gave a switch fluorescence ratio of 1.07 ± 0.098.
ATTAAAAGTT showed a switch fluorescence ratio of 0.984 ± 0.038.
With ATTAAAGGGG the switch fluorescence ratio was 1 ± 0.023.
ATTAAAGGTC was tested, and the switch fluorescence ratio was 1 ± 0.02.
For ATTAAAGTTT, the switch fluorescence ratio was 1.04 ± 0.034.
Sequence ATTAACTGAA has a switch fluorescence ratio of 1.04 ± 0.012.
For ATTAACTGGG, the switch fluorescence ratio was 1.01 ± 0.023.
